Experimental data from US11078465B2, “Alcohol dehydrogenase mutant and application thereof in synthesis of diaryl chiral alcohols” (Jiangnan University, priority 2018, dated 2021).

How the values were obtained:
Assay type in all cases: biochemical
[1] = Kinetic analysis of alcohol dehydrogenase and mutants (NADPH oxidation, 340 nm, double reciprocal curve); conditions: substrate CPMK
Summary of the method: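 His-tagged recombinant KpADH (wild type or mutant) purified by nickel affinity, desalted into Tris-HCl pH 7.0. Activity measured at 30° C in 100 mM sodium phosphate pH 7.0 with 1.0 mM NADPH and 1.0 mM CPMK by 340 nm NADPH absorbance decrease; kinetic parameters from double reciprocal plots over varied substrate and coenzyme concentrations.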

[2] = Stereoselectivity (ee) of CPMK reduction, chiral liquid chromatography
Summary of the method: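 Reaction mixture extracted with ethyl acetate, solvent evaporated, residue taken up in ethanol. Chiral LC and GC give conversion and ee, with ee computed from LC molar concentrations of (S)- and (R)-CPMA.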

[3] = Substrate specificity, specific activity
Experimental: Adopting a total reaction system of 200 μL, including: 1.0 mM NADPH, 1.0 mM substrate CPMK and sodium phosphate buffer (PBS, 100 mM, pH 7.0), fully and evenly mixing, maintaining at 30° C. for 2 min, adding an appropriate amount of enzyme solution, and detecting the change in light absorption at 340 nm.
The enzyme activity was calculated by the following formula: Enzyme activity (U)=EW×V×10^3/(6220×I);
in the formula, EW is the change in absorbance at 340 nm in 1 min; V is the volume of a reaction solution in mL; 6220 is the molar extinction coefficient of NADPH in L/mol·cm); and 1 is the optical path distance in cm. One activity unit (U) corresponds to the amount of enzyme required to catalyze the oxidation of 1 μmol NADPH per minute under the above conditions.
(§1) The reduction on prochiral carbonyl compounds by the alcohol dehydrogenase mutants obtained in Example 3 was studied. The pro-chiral carbonyl compounds include (4-chlorophenyl)-(pyridin-2-yl)-methanone (CPMK), phenyl-(pyridin-2-yl)-methanone, (4-chlorophenyl)-(phenyl)-methanone, (4-bromophenyl)(phenyl)methanone, (4-fluorophenyl)(phenyl)methanone, (4-methoxyphenyl)-(phenyl)-methanone, (4-nitrophenyl)(phenyl)methanone, 1-(pyridin-2-yl)ethanone, acetophenone, 4′-Chloroacetophenone, 4-chlorophenacyl chloride, ethyl 2-oxo-4-phenylbutanoate (OPBE), ethyl 4-chloro-3-oxobutanoate, and methyl 2-oxo-2-phenylacetate.

[4] = Stereoselectivity on different substrates; conditions: for Stereoselectivity (ee): configuration in brackets
Experimental: (§2) In an embodiment of the present disclosure, a chromatographic analysis method is as follows: 100 μL of reactant liquid is taken, 500 μL of ethyl acetate is added, shaking is performed for 1-2 min, centrifugation is performed at 12,000 rpm for 2-5 min, supernatant liquid is taken into a centrifuge tube, after an organic phase naturally volatilizes completely, 500 μL of chromatographically pure ethanol is added, and chiral liquid chromatography and gas chromatography are performed to analyze the transformation rate and the ee value.
(§3) Method for determining optical purity ee:
(§4) As: molar concentration of (S)-CPMA obtained by liquid chromatography; and AR: molar concentration of (R)-CPMA obtained by liquid chromatography.
as §1
All the products above were recrystallized from ethyl acetate and gave more than 99.9% optical purity.

[5] = Stereoselectivity on different substrates; conditions: configuration in brackets
Experimental: as §2, §3, §4, §1

[6] = Asymmetric reduction in 20 mL biocatalytic system, conversion
Experimental: as §2
The pure (R)-CPMA were recrystallized from ethyl acetate at 4° C. and gave 99.9% optical purity. […] Besides, the conversion cannot reach 100% with 24 h in the asymmetric reduction of (4-bromophenyl)-(phenyl)-methanone and p-nitrobenzophenone due to the low enzyme activity.

B1: E214I/S237A: isoleucine for glutamate at position 214 and alanine for serine at position 237 of SEQ ID No. 2 (protein)
chain: MSVLISGASGYIAKHIVRVLLEQNYKVIGTVRSQDKADKLLKQYNNPNLSYEIVPEIANLDAFDDIFKKHGKEIKYVIHAASPVNFGAKDLEKDLVIPAINGTKNMFEAIKKYAPDTVERVVMTASYASIMTPHRQNDPTLTLDEETWNPVTEENAYENVFTAYCASKTFAEKEAWKFVKENSDAVKFKLTTIHPSFVFGPQNFDEDVTKKLNITCEIINGLLHAPFDTKVEKTHFAQFIDVRDVAKTHVLGFQKDELINQRLLLCNGAFSQQDIVNVFNEDFPELKGQFPPEDKDTDLNKGVTGCKIDNEKTKKLLAFEFTPFHKTIHDTVYQILHKEGRV
modifications: Protein translated from synthetic DNA
Kcat [1]: 12.06 ± 0.52 s⁻¹ | Km [1]: 470 ± 50 µM | Vmax [1]: 18.09 ± 0.78 µM/min/mg | ee value, (R)-CPMA ([2]; R configuration product, listed as E2141/S237A): 98.3% | e.e. ([2]; product configuration in brackets): 98.3 (R) | specific activity ([3]; substrate [drawing 1]): 0.09 U/mg | specific activity ([3]; substrate [drawing 2]): 0.08 U/mg | specific activity ([3]; substrate [drawing 3]): 1.42 U/mg | specific activity ([3]; substrate [drawing 4]): 2.94 U/mg | specific activity ([3]; substrate [drawing 5]): 12.38 U/mg | specific activity ([3]; substrate [drawing 6], 4-chlorophenacyl chloride): 30.09 U/mg | specific activity ([3]; substrate [drawing 7]): 21.73 U/mg | specific activity ([3]; substrate [drawing 8]): 30.28 U/mg | specific activity ([3]; substrate [drawing 9], ethyl 4-chloro-3-oxobutanoate): 5.58 U/mg | ee ([4]; substrate 4-chloroacetophenone, (R)): 99.4% | Stereoselectivity (ee) ([4]; substrate [drawing 10], acetophenone): 9.69 (R) | Stereoselectivity (ee) ([4]; substrate [drawing 11], 4-chloroacetophenone): 99.4 (R) | Stereoselectivity (ee) ([4]; substrate [drawing 12], 4-chlorobenzoyl chloride): 76.4 (R) | Stereoselectivity (ee) ([4]; substrate [drawing 16], (4-bromophenyl)-(phenyl)-methanone): 93.4 (S) | Stereoselectivity (ee) ([4]; substrate [drawing 17], p-nitrobenzophenone): 86.5 (S) | Stereoselectivity (ee) ([5]; substrate [drawing 13]): 36.8 (R) | Stereoselectivity (ee) ([5]; substrate [drawing 14], likely CPMK (values partly match Table 4)): 98.4 (R) | Stereoselectivity (ee) ([5]; substrate [drawing 15]): 52.6 (S) | Stereoselectivity (ee) ([5]; substrate [drawing 18]): 81.8 (S) | Conversion rate ([6]; 4-chloroacetophenone 100 mM, 1 h): 59% | Conversion rate ([6]; 4-chloroacetophenone 100 mM, 2 h): 72% | Conversion rate ([6]; 4-chloroacetophenone 100 mM, 3 h): 89% | Conversion rate ([6]; 4-chloroacetophenone 100 mM, 4 h): 85% | Conversion rate ([6]; 4-chloroacetophenone 100 mM, 6 h): 97.6% | Conversion rate ([6]; 4-chloroacetophenone 100 mM, 8 h): 99.8% | Conversion rate ([6]; 4-chloroacetophenone 100 mM, 12 h): >99.9% | Conversion rate ([6]; 4-chloroacetophenone 100 mM, 24 h): >99.9% | Conversion rate ([6]; 4-chloroacetophenone 200 mM, 1 h): 40% | Conversion rate ([6]; 4-chloroacetophenone 200 mM, 2 h): 52.4% | Conversion rate ([6]; 4-chloroacetophenone 200 mM, 3 h): 69.5% | Conversion rate ([6]; 4-chloroacetophenone 200 mM, 4 h): 76.9% | Conversion rate ([6]; 4-chloroacetophenone 200 mM, 6 h): 88.6% | Conversion rate ([6]; 4-chloroacetophenone 200 mM, 8 h): 95.6% | Conversion rate ([6]; 4-chloroacetophenone 200 mM, 12 h): 99.2% | Conversion rate ([6]; 4-chloroacetophenone 200 mM, 24 h): 99.7% | Conversion rate ([6]; 4-chloroacetophenone 500 mM, 1 h): 28.5% | Conversion rate ([6]; 4-chloroacetophenone 500 mM, 2 h): 38.9% | Conversion rate ([6]; 4-chloroacetophenone 500 mM, 3 h): 50.0% | Conversion rate ([6]; 4-chloroacetophenone 500 mM, 4 h): 64.2% | Conversion rate ([6]; 4-chloroacetophenone 500 mM, 6 h): 80.9% | Conversion rate ([6]; 4-chloroacetophenone 500 mM, 8 h): 90.2% | Conversion rate ([6]; 4-chloroacetophenone 500 mM, 12 h): 94.9% | Conversion rate ([6]; 4-chloroacetophenone 500 mM, 24 h): 99.2%
